From the supplement of paper PMC10567573

Experiment: protein stability index of a GFP-peptide fusion (GPS, HEK-293T) (PSI 1-6); higher = more stable
Settings: c terminus: native
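Further: lentivirally expressed fusion library, cells FACS-sorted into six equal-sized GFP/DsRed ratio bins, PSI computed from sequencing read fractions per bin weighted by bin number.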

B1: POLD2 addL (peptide)
chain: CQPISFSGFGAEDDDLGGLGLGPL
protein stability index (parent: NP_006221.1): 2.66

B2: SNF8 addL (peptide)
chain: LPALFTDLYSQEITAEEAREALPL
protein stability index (parent: NP_009172.2): 3.71

B3: PSMB5 addL (peptide)
chain: DGWIRVSSDNVADLHEKYSGSTPL
protein stability index (parent: NP_002788.1): 3.47

B4: TRPA1 addL (peptide)
chain: EQRNSRWNTVLRAVKAKTHHLEPL
protein stability index (parent: NP_015628.1): 4.2
